These results are taken from paper PMC11467389.

Data set [1] is described as follows: Western blot of endogenous PDK1 in ST2 cells. As to conditions: glycan lost; control: rhWnt3a alone.
The nature of data set [2]: CHX chase of Flag-PDK1, Western blot (half-life). The conditions noted are these: glycan lost; control: rhWnt3a alone.
The nature of data set [3]: MG132 6 h, Flag IP, ubiquitin blot. As to conditions: glycan lost; control: Flag-PDK1 WT.
Data set [4] in a line: CHX chase, anti-Flag Western blot (half-life). As to conditions: glycan lost; control: Flag-PDK1 WT.

As for “PDK1 (pyruvate dehydrogenase kinase 1): DON”, in data set [1], the expression_or_secretion result is “decreases”.
For the substance “PDK1 (pyruvate dehydrogenase kinase 1): OSMI”, in data set [2], the degradation_or_half_life result is listed as “decreases”.
With “PDK1 (pyruvate dehydrogenase kinase 1): S174A”, the “other: ubiquitination” value in data set [3] was “increases”. The degradation_or_half_life result in data set [4] is “decreases”.
